# Source: patent US20060110769A1 (Bayer, published 2006)
# Target: mouse hypoxia inducible factor-2 alpha (mouse, UniProt P97481 1-874)
# Experiment: cell-based or functional assay
# mouse hypoxia inducible factor-2 alpha, sequence (P97481 whole entry): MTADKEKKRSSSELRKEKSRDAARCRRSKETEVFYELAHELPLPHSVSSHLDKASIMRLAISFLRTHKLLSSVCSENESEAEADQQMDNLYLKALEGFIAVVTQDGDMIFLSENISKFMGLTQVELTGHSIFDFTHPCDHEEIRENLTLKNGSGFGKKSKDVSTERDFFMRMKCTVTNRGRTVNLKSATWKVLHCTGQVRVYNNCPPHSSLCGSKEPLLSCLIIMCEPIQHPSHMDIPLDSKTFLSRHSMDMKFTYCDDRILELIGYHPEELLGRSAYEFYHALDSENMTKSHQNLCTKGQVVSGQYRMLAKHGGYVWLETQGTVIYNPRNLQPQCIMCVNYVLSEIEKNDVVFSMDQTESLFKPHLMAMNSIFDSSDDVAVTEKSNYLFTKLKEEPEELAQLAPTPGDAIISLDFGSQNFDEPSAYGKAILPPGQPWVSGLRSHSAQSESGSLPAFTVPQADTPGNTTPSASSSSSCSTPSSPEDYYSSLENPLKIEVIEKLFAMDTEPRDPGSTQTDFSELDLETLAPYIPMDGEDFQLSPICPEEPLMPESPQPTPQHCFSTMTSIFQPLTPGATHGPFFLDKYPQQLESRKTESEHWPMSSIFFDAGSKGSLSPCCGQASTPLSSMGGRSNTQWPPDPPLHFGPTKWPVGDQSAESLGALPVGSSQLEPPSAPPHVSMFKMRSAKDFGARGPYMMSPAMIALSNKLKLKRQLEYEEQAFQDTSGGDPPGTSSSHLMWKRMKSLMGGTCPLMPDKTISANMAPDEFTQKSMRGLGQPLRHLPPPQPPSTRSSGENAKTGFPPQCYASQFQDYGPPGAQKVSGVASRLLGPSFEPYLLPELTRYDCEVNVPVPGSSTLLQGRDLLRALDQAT
binder,measurement,value
human prolyl 4-hydroxylase PH-2 (enzyme) MAAAAVTGQRPETAAAEEASRPQWAPPDHCQAQAAAGLGDGEDAPVRPLCKPRGICSRAYFLVLMVFVHLYLGNVLALLLFVHYSNGDESSDPGPQHRAQGPGPEPTLGPLTRLEGIKVGHERKVQLVTDRDHFIRTLSLKPLLFEIPGFLTDEECRLIIHLAQMKGLQRSQILPTEEYEEAMSTMQVSQLDLFRLLDQNRDGHLQLREVLAQTRLGNGWWMTPESIQEMYAAIKADPDADGVLSLQEFSNMDLRDFHKYMRSHKAESSELVRNSHHTWLYQGEGAHHIMRAIRQRVLRLTRLSPEIVELSEPLQVVRYGEGGHYHAHVDSGPVYPETICSHTKLVANESVPFETSCRYMTVLFYLNNVTGGGETVFPVADNRTYDEMSLIQDDVDLRDTRRHCDKGNLRVKPQQGTAVFWYNYLPDGQGWVGDVDDYSLHGGCLVTRGTKWIANNWINVDPSRARQALFQQEMARLAREGGTDSQPEWALDRAYRDARVEL,activity of HIF-2 alpha on the hypoxia responsive reporter gene construct (equal amounts of each plasmid); activity of PH-2 relative to EGLN3,2 fold less active than EGLN3
